Legend:
[1] = target: T1, full-length human PSMA expressed on cells (HEK293T/PSMA transfectants, LNCaP) (human, UniProt Q04609 1-750); assay: immunofluorescence microscopy on fixed, permeabilized cells
T1 construct: whole, on cells; Transfected in HEK293T/17 cells, endogenous in LNCaP cells; In the Western blot it stood in SDS cell lysates; also called full length wild-type PSMA; cellular PSMA
Experimental: PSMA-positive and -negative cells grown on cover slides coated with gelatin (0.1% w/v) were washed twice with PBS, fixed with 4% w/v paraformaldehyde in PBS for 15 min, permeabilized by treatment with PBS containing 0.1% v/v Triton X-100 for 15 min, and incubated in the blocking solution (5% w/v non-fat dried milk/PBS) for 30 min at room temperature (RT). Cells were then incubated with 0.5 μM Anticalin in 5% w/v non-fat dried milk/PBS for 45 min at RT followed by incubation with a Strep-tag II specific monoclonal antibody StrepMAB-Immo (2 μg/mL in PBS/0.05% Tween-20; IBA, 2-1517) for 1 h at RT. An anti-mouse secondary antibody conjugated to Alexa Fluor 488 (5 μg/mL in PBS/0.05% Tween-20; Life Technologies, A11029) served as detection reagent and was applied for 1 h at RT. All incubation steps were interspersed by extensive washing with PBS/0.05% Tween-20. […]
For immunofluorescence microscopy, the different cell lines were fixed with paraformaldehyde on glass coverslips and permeabilized. Following a blocking step, cells were probed with the Anticalin A3A5, which was detected by a murine antibody (StrepMAB-Immo) recognizing the Strep-tag II and an Alexa Fluor 488-labeled anti-mouse secondary antibody. […] Also, when wild-type Lcn2 was used instead of the Anticalin A3A5, no fluorescent staining was detected. […]

[2] = target: T2, rhPSMA, extracellular part of human PSMA (residues 44-750) with its native N-terminus (human, UniProt Q04609 44-750, N-glycosylated (made in Schneider S2 insect cells)); assay: ELISA on coated rhPSMA; G4 taken as the sixth candidate
T2 construct: range 44-750; No tag; also called wild-type rhPSMA; rhGCPII
Experimental: 50 μL of rhPSMA (5 μg/mL in TBS) was directly adsorbed onto the surface of a MaxiSorp 96-well plate overnight at 4° C. Similarly, ovalbumin-coated wells (10 μg/mL in PBS) were used as a negative control. After blocking with 250 μL of 2% w/v BSA for 1 h at room temperature, 50 μL from a serial Anticalin dilution in PBS was added to each well and incubated for 1 h. The plates were washed three times and bound Anticalins were detected with StrepTactin-AP as described further above. The data were analyzed using Prism 5 software (GraphPad) and absorption values (A) were fitted according to the formula ΔA=Aₘₐₓ·[Lₜₒₜ]/(KD+[Lₜₒₜ]) with the concentration of the applied lipocalin variant [Lₜₒₜ] and the dissociation constant KD.
Specific binding activities of selected Anticalins toward rhPSMA as well as apparent affinity constants were initially determined by ELISA in 96-well Maxisorp plates coated with the recombinant wild-type PSMA protein. Anticalins were applied in a dilution series and detected via the C-terminal Strep-tag II. Five of the six analyzed Anticalin candidates specifically recognized PSMA with apparent dissociation constants (K₀ values) ranging from 6 to 42 nM, for A3 and H3, respectively (FIG. 4). For comparison, binding activity towards ovalbumin, which served as a negative control, was negligible. The G4 clone was later found to bind the anti-FLAG antibody (not shown).

T2 sequence (Q04609 44-750 limits assumed): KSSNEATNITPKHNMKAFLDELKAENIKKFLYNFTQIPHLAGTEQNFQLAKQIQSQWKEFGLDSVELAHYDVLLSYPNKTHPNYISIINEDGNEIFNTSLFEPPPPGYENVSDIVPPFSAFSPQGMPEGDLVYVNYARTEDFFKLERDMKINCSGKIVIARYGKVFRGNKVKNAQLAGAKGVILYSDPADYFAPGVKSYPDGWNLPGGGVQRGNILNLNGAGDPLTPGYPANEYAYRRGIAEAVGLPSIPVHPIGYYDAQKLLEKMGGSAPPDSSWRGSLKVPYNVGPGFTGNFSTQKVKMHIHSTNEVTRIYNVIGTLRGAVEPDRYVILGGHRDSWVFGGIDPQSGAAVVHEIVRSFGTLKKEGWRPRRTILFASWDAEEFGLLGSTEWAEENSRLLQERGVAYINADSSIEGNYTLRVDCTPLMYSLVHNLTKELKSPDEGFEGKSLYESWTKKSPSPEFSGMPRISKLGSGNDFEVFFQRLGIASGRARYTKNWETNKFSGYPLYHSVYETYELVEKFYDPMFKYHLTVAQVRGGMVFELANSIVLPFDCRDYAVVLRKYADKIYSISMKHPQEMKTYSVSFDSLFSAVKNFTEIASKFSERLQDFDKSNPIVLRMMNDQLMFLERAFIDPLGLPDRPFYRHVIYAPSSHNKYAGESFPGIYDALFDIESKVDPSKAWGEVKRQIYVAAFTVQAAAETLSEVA
T1 sequence (Q04609 whole entry): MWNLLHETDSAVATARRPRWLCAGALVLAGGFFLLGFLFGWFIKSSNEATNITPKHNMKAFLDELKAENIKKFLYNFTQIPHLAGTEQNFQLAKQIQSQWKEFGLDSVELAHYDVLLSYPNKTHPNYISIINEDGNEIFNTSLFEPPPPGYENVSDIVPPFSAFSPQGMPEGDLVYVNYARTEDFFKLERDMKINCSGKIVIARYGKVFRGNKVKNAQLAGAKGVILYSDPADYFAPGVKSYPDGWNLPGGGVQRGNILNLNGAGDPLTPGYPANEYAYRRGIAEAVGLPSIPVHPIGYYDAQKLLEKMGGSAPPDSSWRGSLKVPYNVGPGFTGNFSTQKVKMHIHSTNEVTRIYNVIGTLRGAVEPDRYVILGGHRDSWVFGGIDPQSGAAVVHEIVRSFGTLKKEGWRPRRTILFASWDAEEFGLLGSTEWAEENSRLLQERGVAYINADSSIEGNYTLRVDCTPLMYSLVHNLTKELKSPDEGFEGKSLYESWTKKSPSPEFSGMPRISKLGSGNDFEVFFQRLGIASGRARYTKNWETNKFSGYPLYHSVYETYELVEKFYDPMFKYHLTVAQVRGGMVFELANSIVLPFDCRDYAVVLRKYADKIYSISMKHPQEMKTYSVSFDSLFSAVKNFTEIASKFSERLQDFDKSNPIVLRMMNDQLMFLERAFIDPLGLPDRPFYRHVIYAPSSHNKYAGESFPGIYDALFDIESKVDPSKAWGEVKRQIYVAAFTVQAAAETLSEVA

| binding result [1] | binding result [2] | Binder |
| --- | --- | --- |
| no binding (tested: 0.5 µM) |  | wild-type Lcn2 (other, Negative control in microscopy and flow cytometry; also called wt Lcn2; lipocalin 2) QDSTSDLIPAPPLSKVPLQQNFQDNQFQGKWYVVGLAGNAILREDKDPQKMYATIYELKEDKSYNVTSVLFRKKKCDYWIRTFVPGCQPGEFTLGNIKSYPGLTSYLVRVVSTNYNQHAMVFFKKVSQNREYFKITLYGRTKELTSELKENFIRFSKSLGLPENHIVFPVPIDQCIDG |
|  | no binding | Anticalin candidate G4 (designed binder, also called G4 clone; not shown: C-terminal Strep-tag II) QDSTSDLIPAPPLSKVPLQQNFQDNQFHGKWYVVGHAGNMLLREDKDPSKMVATIYELKEDKSYNVTQVDFGTKKCFYAINTFVPGSQPGEFTLGHIKSNPGMTSMLVRVVSTNYNQHAMVFFKAVLQNREGFLITLYGRTKELTSELKENFIRFSKSLGLPENHIVFPVPIDQCIDG |

— patent US20180318451A1 (published 2018)
